Test results as given in patent US20180282403A1, “AGENTS FOR REDUCING THE ACTIVITY OF GDF15” (GENAGON THERAPEUTICS AB, priority 2015, published 2018).

Legend:
Format in all cases: cell-based
[1] = system: QRFPR; test: In situ PLA detection of RAB11-QRFPR double positive endosomes in MCF7 cells; conditions: GDF15 stimulation alone; FIG. 5
Excerpt: The RAB11 protein is a marker for recycling endosomes back to the cell surface, and the RAB11 pathway is also involved in exosome assembly (Savina et al., 2005; Savina et al., 2002). RAB11 was thus thought to be a likely candidate to be involved in QRFPR reduction on the cell surface induced by GDF15
An in situ PLA assay was developed to detect the proximity of RAB11 and QRFPR. In the absence of GDF15, only a low signal is observed (FIGS. 5A and 5C).
We choose to use this assay as a way to investigate if the activity of GDF15 could be inhibited by various agents. […] GDF15-induced formation of RAB11/QRFPR endosomes is inhibited by QRFPR peptides (FIG. 9A-D). Equal amounts of a mastermix of GDF15 was aliquoted and pre-incubated in PBS with the various receptor fragment before addition to cells. Sequentially, the cells were treated with either PBS, GDF15 or GDF15/QRFPR-derived peptide mixes.

[2] = biological target: T1, CLPTM1 (Homo sapiens, UniProt O96005); test: Detection of NKG2D in NK-92 cells after extended GDF15 stimulation; conditions: overnight GDF15 stimulation, FIG. 21A
T1 construct: endogenous in cells; host or cells: NK-92 cells
T1 sequence (O96005 1-669): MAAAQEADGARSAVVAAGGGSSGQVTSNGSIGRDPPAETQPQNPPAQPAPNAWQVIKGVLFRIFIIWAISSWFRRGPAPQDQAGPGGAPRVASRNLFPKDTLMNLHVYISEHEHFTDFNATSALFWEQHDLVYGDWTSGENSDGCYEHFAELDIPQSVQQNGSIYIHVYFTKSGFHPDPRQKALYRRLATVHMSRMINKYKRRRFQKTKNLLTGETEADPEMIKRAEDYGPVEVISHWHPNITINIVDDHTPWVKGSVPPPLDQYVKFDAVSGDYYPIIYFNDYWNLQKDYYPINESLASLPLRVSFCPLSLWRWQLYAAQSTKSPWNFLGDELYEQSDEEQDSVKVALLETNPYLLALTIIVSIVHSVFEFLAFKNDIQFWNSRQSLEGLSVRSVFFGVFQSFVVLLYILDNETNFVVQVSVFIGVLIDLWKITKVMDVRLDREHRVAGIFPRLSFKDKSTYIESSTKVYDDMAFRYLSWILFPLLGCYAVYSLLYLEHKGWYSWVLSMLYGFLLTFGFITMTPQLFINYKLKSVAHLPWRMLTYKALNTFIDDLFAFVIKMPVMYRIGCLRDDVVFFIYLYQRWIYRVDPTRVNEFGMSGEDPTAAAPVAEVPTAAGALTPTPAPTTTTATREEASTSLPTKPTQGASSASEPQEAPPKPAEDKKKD
Excerpt: Based upon literature, the expression of CLPTM1 in immune cells such as CD8+T-lymphocytes and NK-92 cells, and the GDF15 induced proximity of CLPTM1 to TGFBRI-TGFBRII (through which TGFB1 signals), we investigated whether blockade of CLPTM1 by antibodies could affect the levels of the immune effector NKG2D in NK-92 cells that had been subjected to extended stimulation with GDF15. […] The decrease in NKG2D was reversed in NK-92 cells that had been pre-treated with a binding agent capable of binding to CLPTM1 (an antibody) prior to GDF15 stimulation (FIG. 21B). […] We propose that this may increase their cytotoxicity.

[3] = biological target: T2, QRFPR (Homo sapiens, UniProt Q96P65); test: QRFPR levels after prolonged GDF15 stimulation with or without proteasome inhibition; conditions: GDF15 18 hrs, absence of MG132; FIG. 6B
T2 construct: endogenous in cells
T2 sequence (Q96P65 1-431): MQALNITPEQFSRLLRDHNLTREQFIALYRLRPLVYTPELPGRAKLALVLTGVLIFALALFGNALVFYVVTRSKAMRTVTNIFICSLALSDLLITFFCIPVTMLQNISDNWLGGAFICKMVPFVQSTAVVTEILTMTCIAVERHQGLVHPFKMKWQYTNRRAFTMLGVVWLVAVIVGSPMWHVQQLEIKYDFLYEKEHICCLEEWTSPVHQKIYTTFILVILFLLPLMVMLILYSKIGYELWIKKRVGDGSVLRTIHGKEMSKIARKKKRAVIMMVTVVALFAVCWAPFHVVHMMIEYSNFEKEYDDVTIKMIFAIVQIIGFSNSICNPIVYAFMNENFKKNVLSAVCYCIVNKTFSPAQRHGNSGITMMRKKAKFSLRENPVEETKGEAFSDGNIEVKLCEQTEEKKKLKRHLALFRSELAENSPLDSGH
Experimental: This effect is not seen in cells which are treated with MG132 (FIG. 6D).

[4] = biological target: T2, QRFPR; test: In situ PLA detection of EEA1-QRFPR proximity; conditions: GDF15 5 min; FIG. 3C-D
Excerpt: […] (EEA1) is a marker for rapid endosome formation, and an assay was developed to detect the proximity of EEA1 and QRFPR. In the absence of GDF15, no signal was obtained (FIG. 3C).

[5] = biological target: T2, QRFPR; test: In situ PLA detection of ACTRIIB-QRFPR proximity in MCF7 cells; conditions: serum-starved MCF7 cells, GDF15 20 minutes; FIG. 3A-B
Experimental: MCF7 cells were stimulated with GDF15 (GDF15 from isolated mammalian source or recombinant derived from E. coli purchased from Abcam and Biovision). An assay was developed for monitoring the activity of GDF15 and to investigate the dynamics of receptor(s) such as QRFPR modulation by the ligand.
Serum-starved MCF7 cells were treated with GDF15, and an in situ PLA detection assay was developed to detect the interaction between ACTRIIB and QRFPR using antibodies from two different species, thus allowing the use of Duolink secondary detection reagents. The presence of the QRFPR-ACTRIIB complex was detected in the absence of GDF15 (see FIG. 3A, indicated by arrows).

[6] = biological target: T2, QRFPR; test: In situ PLA detection of RAB4-QRFPR double positive endosomes; conditions: GDF15 stimulation alone; FIG. 7
Experimental: An assay was developed to detect the proximity of RAB4-QRFPR using antibodies against RAB4 and QRFPR.
In short, the cells were serum starved overnight then pre-incubated with blocking antibodies towards extracellular parts of QRFPR for 2 hrs prior to GDF15 treatment (1 μg/ml) for 30 minutes. The levels of formed RAB4-QRFPR complexes were measured by visualization of formed RCA products using the Duolink is PLA system (see FIG. 11).

[7] = biological target: T2, QRFPR; test: In situ PLA detection of CD9-QRFPR proximity; conditions: GDF15 30 minutes; FIG. 4
Excerpt: The tetraspanin CD9 has dual roles, both in endosome trafficking and in exosome secretion (Mazurov et al.). An in situ PLA assay was developed to detect the proximity of CD9 and QRFPR using antibodies against CD9 and QRFPR. In the absence of GDF15, only a low signal level is observed (FIGS. 4A and 4C).

levels of detectable NKG2D [2]: low levels of detectable NKG2D
levels of QRFPR [3]: dramatically reduced the levels of QRFPR
EEA1-QRFPR proximity (RCA products) [4]: increase the number of RCA products
ACTRIIB-QRFPR in situ PLA signal [5]: reduced by GDF15 treatment
CD9-QRFPR complex signal [7]: higher level of signal
Substance: GDF15: Growth and differentiation factor 15, from mammalian source or recombinant from E. coli (Abcam, Biovision)
RAB11-QRFPR double positive endosomes [1]: rapid detection of RAB11-QRFPR double positive endosomes
RAB4-QRFPR double positive endosomes [6]: formation of RAB4-QRFPR double positive endosomes was detected
